Data: patent publication US20210340273A1 (INHLBRX, published 2021)

Experiments:
hmc5T4.1 = biological target: T1, hmc5T4.1; experiment: flow cytometry on CHO cells transiently transfected with the 5T4 construct
T1 construct: the rest is mouse 5T4; also called chimeric hmc5T4.1; hybrid mouse/human 5T4 with human residues 1-173 of the extracellular domain; not shown: intracellular Citrine tag fused to the full coding region
T1 chain: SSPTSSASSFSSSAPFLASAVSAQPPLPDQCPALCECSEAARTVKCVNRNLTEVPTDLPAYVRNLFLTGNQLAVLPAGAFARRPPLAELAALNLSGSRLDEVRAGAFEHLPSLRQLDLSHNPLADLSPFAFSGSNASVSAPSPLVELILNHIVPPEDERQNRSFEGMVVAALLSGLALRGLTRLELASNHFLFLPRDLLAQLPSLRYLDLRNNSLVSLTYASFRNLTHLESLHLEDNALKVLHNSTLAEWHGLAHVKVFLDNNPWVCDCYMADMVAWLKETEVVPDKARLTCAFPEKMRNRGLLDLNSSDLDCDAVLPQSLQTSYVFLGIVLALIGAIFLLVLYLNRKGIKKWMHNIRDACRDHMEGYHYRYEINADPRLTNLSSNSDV
Description: (§1) In order to determine the location of the epitope recognized by these sdAbs, various mouse:human chimeric 5T4 constructs were generated, wherein various portions of the murine extracellular domain of 5T4 were replaced with that of human 5T4. The constructs were generated by grafting a nucleic acid sequence encoding the specific region of human 5T4 into the cognate region of mouse 5T4 in a mammalian expression plasmid encoding the full 5T4 coding region (extracellular domain, transmembrane domain, intracellular domain) fused to an intracellular Citrine tag. […] CHO cells were transiently transfected with these constructs to enable cell surface expression, and binding was monitored by flow cytometry.

[1] = biological target: T2, murine 5T4 construct (Mu), full 5T4 coding region fused to an intracellular Citrine tag, on transfected CHO … (mouse, UniProt Q9Z0L0 32-426); experiment: as above
T2 construct: also called fully murine construct; mouse 5T4 antigen; not shown: intracellular Citrine tag
T2 sequence: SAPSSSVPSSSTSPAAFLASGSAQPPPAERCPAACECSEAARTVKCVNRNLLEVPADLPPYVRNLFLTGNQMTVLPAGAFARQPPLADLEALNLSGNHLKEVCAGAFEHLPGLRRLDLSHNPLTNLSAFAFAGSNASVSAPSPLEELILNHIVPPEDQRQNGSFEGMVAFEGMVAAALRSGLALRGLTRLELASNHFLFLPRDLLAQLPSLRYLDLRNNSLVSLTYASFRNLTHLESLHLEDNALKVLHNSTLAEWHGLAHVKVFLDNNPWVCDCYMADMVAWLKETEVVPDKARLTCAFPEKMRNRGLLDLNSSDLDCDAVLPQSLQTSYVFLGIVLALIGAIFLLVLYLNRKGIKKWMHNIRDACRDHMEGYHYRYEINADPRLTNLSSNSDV
Description: as §1

[2] = biological target: T3, human 5T4 construct (Hu), full 5T4 coding region fused to an intracellular Citrine tag, on transfected CHO … (human, UniProt Q13641 32-420); experiment: as above
T3 construct: also called fully human construct; not shown: intracellular Citrine tag
T3 sequence: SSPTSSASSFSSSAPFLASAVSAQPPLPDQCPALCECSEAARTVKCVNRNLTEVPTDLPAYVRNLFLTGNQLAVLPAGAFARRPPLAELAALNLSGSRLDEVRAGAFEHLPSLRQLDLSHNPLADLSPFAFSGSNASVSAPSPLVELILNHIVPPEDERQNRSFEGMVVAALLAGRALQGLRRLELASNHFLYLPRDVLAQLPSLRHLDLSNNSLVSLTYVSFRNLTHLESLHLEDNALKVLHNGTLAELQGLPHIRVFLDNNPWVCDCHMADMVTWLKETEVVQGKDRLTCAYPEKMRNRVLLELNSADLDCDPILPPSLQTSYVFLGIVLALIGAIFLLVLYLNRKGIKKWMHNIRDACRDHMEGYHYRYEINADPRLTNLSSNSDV
Description: as §1

[3] = biological target: T4, human 5T4 (trophoblast glycoprotein), endogenous on the cell surface (human, UniProt Q13641 32-420); experiment: printed as Affinity 5T4; apparent affinity from flow cytometry titration on Ovcar-5 cells
T4 construct: also called TPBG; 5T4 oncofetal antigen
T4 sequence: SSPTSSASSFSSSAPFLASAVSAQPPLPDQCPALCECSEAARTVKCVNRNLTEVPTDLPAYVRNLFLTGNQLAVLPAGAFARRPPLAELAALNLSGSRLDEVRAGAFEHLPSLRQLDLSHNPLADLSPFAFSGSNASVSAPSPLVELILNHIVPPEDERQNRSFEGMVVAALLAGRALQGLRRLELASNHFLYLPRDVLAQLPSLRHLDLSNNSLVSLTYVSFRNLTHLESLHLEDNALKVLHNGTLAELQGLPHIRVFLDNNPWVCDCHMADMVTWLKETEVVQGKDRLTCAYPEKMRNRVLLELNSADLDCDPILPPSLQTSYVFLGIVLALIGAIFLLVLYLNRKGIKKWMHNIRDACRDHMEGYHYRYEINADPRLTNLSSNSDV
Method: Binding of exemplary 5T4-targeting constrained CD3 engaging constructs set forth in Table E3 to CD3 on the surface of primary T cells and 5T4 expressing cells (Ovcar-5) was assessed by flow cytometry. The T cells were primary T-cells that were negatively enriched from PBMCs isolated from healthy human donor leukopaks. Bound construct was detected with fluorophore-conjugated secondary antibodies specific for the human Fc (anti-human IgG APC secondary antibody) and binding was measured by flow cytometry. Cells incubated with secondary antibody only served as negative controls. The results, from flow cytometry histograms displaying normalized cell counts versus fluorescence at 200 nM of each construct, are shown in FIG. 4A (cx3253), FIG. 4B (cx3264), FIG. 4C (cx3497), FIG. 4D (cx3499), FIG. 4E (cx3547), FIG. 4F (cx3546), FIG. 4G (cx4224), FIG. 4H (cx4913), FIG. 4I (cx3265), […] (cx4912), FIG. 4K (cx3262), FIG. 4L (cx4911), and FIG. 4M (cx4910). […] However, as shown in the top right and bottom panels of each of the figures, the same constructs were not able to bind to T cells in isolation.
Table E4 summarizes the affinity of exemplary molecules for 5T4 or CD3, as determined from flow cytometry, in these studies.

[4] = biological target: T4, human 5T4 (trophoblast glycoprotein), …; experiment: flow cytometry on 5T4-positive OVCAR5 (Ovcar-5) cells, anti-human IgG secondary; titration
Method: FIGS. 4A-4M depict the binding of various 5T4-target constrained CD3 engaging constructs to the 5T4 positive Ovcar-5 cell line (top left) and the lack of binding to primary human T-cells (top right). […] Binding was assessed by flow cytometry using an anti-human IgG APC secondary antibody. The histograms display the normalized cell counts vs fluorescence at 200 nM of each construct.
Binding of exemplary 5T4-targeting constrained CD3 engaging constructs set forth in Table E3 to CD3 on the surface of primary T cells and 5T4 expressing cells (Ovcar-5) was assessed by flow cytometry. The T cells were primary T-cells that were negatively enriched from PBMCs isolated from healthy human donor leukopaks. Bound construct was detected with fluorophore-conjugated secondary antibodies specific for the human Fc (anti-human IgG APC secondary antibody) and binding was measured by flow cytometry. Cells incubated with secondary antibody only served as negative controls. […] The results, from flow cytometry histograms displaying normalized cell counts versus fluorescence at 200 nM of each construct, are shown in FIG. 4A (cx3253), FIG. 4B (cx3264), FIG. 4C (cx3497), FIG. 4D (cx3499), FIG. 4E (cx3547), FIG. 4F (cx3546), FIG. 4G (cx4224), FIG. 4H (cx4913), FIG. 4I (cx3265), […] (cx4912), FIG. 4K (cx3262), FIG. 4L (cx4911), and FIG. 4M (cx4910). […]

| Binder | EC50 (read off the curve) (hmc5T4.1) | binding result [1] | EC50 (read off the curve) [2] | Kd [3] | EC50 (read off the curve) [4] |
| --- | --- | --- | --- | --- | --- |
| hz12E9v9 sdAb-Fc (Fc fusion, Humanized variant of 12E9; also called hz12E9v09; hz12E9v9-Fc; not shown: human Fc) EVQLVESGGGEVQPGGSLRLSCAASGRPFSSKTMAWFRQAPGKEREFVAAVRWIGGATRYTESVKGRFTISRDNAKNTVYLQMSSLRAEDTAVYYCAAGQAWGTKFTDYSDWGQGTLVTVKP | ~800 pM | no binding (tested: about 500 nM) | ~1000 pM | – | – |
| cx3253, 5T4-targeted constrained CD3 engaging construct with a 41BB binding domain (bispecific antibody, Heterodimeric multispecific construct (5T4 x CD3 x 41BB)) chain 1: QVQLVQSGGGLVQAGGSLRLSCAASRRPFSSKTMAWFRQTPGKEREFVAAVRWIGGATRYTDSVKGRFSISKDNAINTVYLQMNSLKSEDTAVYYCAAGQAWGTKFTDYSDWGQGTQVTVKPDKTHTCPPCPAPELLGGPSVFLFPPKPKDTLMISRTPEVTCVVVDVSHEDPEVKFNWYVDGVEVHNAKTKPREEQYNSTYRVVSVLTVLHQDWLNGKEYKCKVSNKALPAPIEKTISKAKGQPREPQVYTLPPCRDELTKNQVSLWCLVKGFYPSDIAVEWESNGQPENNYKTTPPVLDSDGSFFLYSKLTVDKSRWQQGNVFSCSVMHEALHNHYTQKSLSLSPTGGSGGGGIEPDIGGSGGSEVQLVESGGGLVQPGGSLRLSCAASGFTFNTYAMNWVRQAPGKCLEWVARIRSKYNNYATYYADSVKGRFTISRDDAKNTLYLQMSSLRAEDTAVYYCVRHGNFGNSYVSWFAYWGQGTLVTVKPQVQLVQSGGGLVQAGASLRLSCVASGRTRSLRTMAWFRQAPGKERIFVAAISWRSDSTYYADSVKGRFTISRDNAKNTAYLQMNTLKPEDTAVYYCAAGGGWLATTPDEYTYWGQGTLVTVKP chain 2: not shown | – | – | – | 120 pM | – |
| cx3497, 5T4-targeted constrained CD3 engaging construct with a 41BB binding domain (bispecific antibody, Heterodimeric multispecific construct (5T4 x CD3 x 41BB)) chain 1: QVQLVQSGGGLVQAGGSLRLSCAASRRPFSSKTMAWFRQTPGKEREFVAAVRWIGGATRYTDSVKGRFSISKDNAINTVYLQMNSLKSEDTAVYYCAAGQAWGTKFTDYSDWGQGTQVTVKPDKTHTCPPCPAPELLGGPSVFLFPPKPKDTLMISRTPEVTCVVVDVSHEDPEVKFNWYVDGVEVHNAKTKPREEQYNSTYRVVSVLTVLHQDWLNGKEYKCKVSNKALPAPIEKTISKAKGQPREPQVYTLPPCRDELTKNQVSLWCLVKGFYPSDIAVEWESNGQPENNYKTTPPVLDSDGSFFLYSKLTVDKSRWQQGNVFSCSVMHEALHNHYTQKSLSLSPTGGSGGGGIEPDIGGSGGSEVQLVESGGGLVQPGGSLRLSCAASGFTFNTYAMNWVRQAPGKCLEWVARIRSKYNNYATYYADSVKGRFTISRDDAKNTLYLQMSSLRAEDTAVYYCVRHGNFGNSYVSWFAYWGQGTLVTVKPQVQLLQSGGGLVQAGGSLILSCAVSGRPFSSSAMGWFRQAPGKERETVAAVSRNGGSSYYADFVKGRFTISRDNDKNTVYLQMNSLKPEDTAVYYCAARSAAYSRSSETYTEKHDYTYWGQGTQVTVKP chain 2: not shown | – | – | – | 646 pM | ~700 pM |
